Patent US20200209238A1, “OPTIMIZING DIAGNOSTICS FOR GALACTOFURANOSE CONTAINING ANTIGENS” (The Johns Hopkins University, priority 2017, published 2020)

How the values were obtained:
[1] = system: Aspergillus fumigatus conidia and hyphae; assay: rIntL-1 binding to conidia and hyphae, fluorescence microscopy
Protocol: Conidia from Aspergillus fumigatus were counted and adjusted to 10^6/mL in Sabouraud's Dextrose broth, and grown for 6 hours at 37° C. to germinate (forming hyphae). The collection of swollen, germinating conidia and growing hyphae from already-germinated conidia were killed with heat at 90° C. for 1 h. The fungal material (killed conidia and hyphae) was pelleted by centrifugation, resuspended in IntL-ELISA blocking buffer, and incubated with 10^−7 M rIntL-1 (FLAG-tagged) in presence of 10 μg/mL of either MAb476 or an irrelevant, isotype control antibody mouse IgM for 2 h at 30° C. Following washes with IntL-ELISA buffer, the material was resuspended in IntL-ELISA blocking buffer and incubated with a 1:50 diluted anti-FLAG tag antibody conjugated to the red fluorochrome phycoerythrin (PE). Again, after washes, the stained material was resuspended in IntL-ELISA blocking buffer, transferred to chamber slides and observed under a fluorescent microscope. The inventors performed experiments wherein Aspergillus ethanol precipitate and whole cells (conidia and hyphae) were exposed to rIntL-1 and then a sandwich assay using Rabbit polyclonal antibodies to INTL-1 and goat anti-rabbit antibodies with a fluorescent ligand were performed in buffer comprising 10 mM CaCl2). […] Thus, IntL-1 could be the competitive agent which is interfering with the inventors' antibodies to galF.

[2] = system: Aspergillus ethanol precipitate (EP); assay: rIntL-1 binding to Aspergillus ethanol precipitate, ELISA; details: buffer with 10 mM CaCl2
Protocol: Wells of a microtiter plate were coated with 10 μg/ml of EP antigen and blocked with a blocking buffer containing 0.1% BSA in IntL-ELISA buffer (20 mM HEPES pH7.4; 150 mM NaCl; 10 mM CaCl2); 0.1% Tween-20. Ref: Wesener et al. (2015) Nature Structural & Molecular Biology, 22(8):603). Recombinant human IntL-1 (rintL-1) was serially diluted tenfold in blocking buffer starting at 10^−6 M, and incubated on the EP-coated plate for 2 h at 30° C., followed by washes with IntL-ELISA buffer. The bound IntL was detected by an anti-omentin Rabbit IgG ab (Millipore) diluted 1:1000 in blocking buffer and incubated at 30° C. for 2 h. Wells were again washed and incubated with a goat anti-Rabbit IgG-AP at 1:1000 for 1 h at 30° C. Following another wash, the color was developed by AP substrate for 30 minutes at 37° C.
Conidia from Aspergillus fumigatus were counted and adjusted to 10^6/mL in Sabouraud's Dextrose broth, and grown for 6 hours at 37° C. to germinate (forming hyphae). The collection of swollen, germinating conidia and growing hyphae from already-germinated conidia were killed with heat at 90° C. for 1 h. The fungal material (killed conidia and hyphae) was pelleted by centrifugation, resuspended in IntL-ELISA blocking buffer, and incubated with 10^−7 M rIntL-1 (FLAG-tagged) in presence of 10 μg/mL of either MAb476 or an irrelevant, isotype control antibody mouse IgM for 2 h at 30° C. […]

[3] = Immunoprecipitation of urine with mAb476-coated dynabeads; type: binding, human; details: normal urine
Protocol: Studies were performed to identify the proteins that are bound by mAb476 after immunoprecipitation, using mass spectrophotometry. To enrich sample detection of moieties specifically binding to mAb476, urines were incubated with superparamagnetic dynabeads coated with mAb476 and a mouse control antibody. mAb476 reactive material was eluted with 50 mM glycine (pH 2.5-3.0). […] Reactivity to mAb476 eluates was confirmed by sandwich ELISA. Eluates were then run on SDS-PAGE gels to check for band patterns, and in-solution mass spectrometry analysis was performed. Analysis detected the microbial antigen CelA/Aspf7 (a galF-containing 0-glycan).

[4] = Western blot of urine with mAb476; type: binding, human
Protocol: Studies were performed using urine collected from control patients (pooled) and patient who had Aspergillus infection (VU7). The samples were run in a reducing SDS polyacrylamide gel electrophoresis (PAGE), and the resolved proteins were transferred to a nylon membrane for performing a Western Blot. Some samples used concentrated urine (denoted by “c”) using an Amicon concentrator or were pretreated by desalting columns (denoted by “ds”).

B1: rINTL-1: Recombinant human IntL-1 (intelectin-1), FLAG-tagged in the cell binding test (protein)
chain: TDEANTYFKEWTCSSSPSLPRSCKEIKDECPSAFDGLYFLRTENGVIYQTFCDMTSGGGGWTLVASVHENDMRGKCTVGDRWSSQQGSKAVYPEGDGNWANYNTFGSAEAATSDDYKNPGYYDIQAKDLGIWHVPNKSPMQHWRNSSLLRYRTDTGFLQTLGHNLFGIYQKYPVKYGEGKCWTDNGPVIPVVYDFGDAQKTASYYSPYGQREFTAGFVQFRVFNNERAANALCAGMRVTGCNTEHHCIGGGGYFPEASPQQCGDFSGFDWSGYGTHVGYSSSREITEAAVLLFYR
binding to whole cells (conidia & hyphae) ([1]; 10^−7 M FLAG-tagged rIntL-1, heat-killed Af293 conidia and hyphae): binds to whole cells
binding to Aspergillus ethanol precipitate [2]: bound Aspergillus ethanol precipitate with high affinity

B2: mAb476: galF-specific monoclonal antibody, VH domain of SEQ ID NO:9 and VL domain of SEQ ID NO:10 (antibody, V domains shown)
VH: EVQLEESGGGLVQPGGSLRLSCATSGFTFSDFYMEWVRQTPGERLEWIAASRNKANDYTAEYSASVKGRFTVFRDTSQNILYLQMNALRAEDTAAYYCARDADYGKTFSWYFDVWGAGTTVTVSS
VL: DIVMTQDELSNPVTSGESVHISCRSSKSLLYKDGKTYLNWFLQRPGQSPQLLIYLMSTRASGVSDRFSGSGSGTDFTLEISRVKAEDVGVYYCQQLVEYPLTFGAGTKLELK
binding in immunoprecipitation [3]: No mAb476 binding occurred
effect on cellular rINTL-1 binding (galF recognition) ([1]; 10 μg/mL antibody with 10^−7 M rIntL-1): GalF recognition is reduced
reactive bands in Western blot ([4]; healthy human pooled urine): no reactive bands
molecular weight of reactive bands in Western blot ([4]; urine from patients with aspergillosis): 26 to 35 kDa
